A short description of one series: Trans-sialidase assay. It counts as biochemical. Here is the method: The trans-sialidase assay was performed as described (Scudder et al., J. Biol. Chem. 268:9886-9891 (1993)) with slight modifications. Various amounts of intact enzyme or enzyme fragments were added to 50 mM PBS, Ph 7.2, containing 15% fetal calf serum and […] of [^14C]N-acetyllactosamine (4×10^5 dpm), 50 μg BSA and 0.02% NaN3 in a volume of 60 μl. After incubation for a predetermined amount of time at room temperature, the reaction mixture was diluted to 1.0 ml with distilled water and applied to a column containing 1.0 ml Q-Sepharose equilibrated with water. Sialylated product was eluted with 1 M NaCi and quantified by scintillation counting.
TS enzymatic activity was measured by the sialylation of the acceptor ^14C-labeled N-acetyllactosamine on anion exchange resins (Scudder, P. et. al., J. Biol. Chem. 268:9886-9891 (1993)). Recombinant TSA-1, was expressed on insect sf9 cells and purified from serum-free medium by ion exchange chromatography (monoQ) and preparative SDS-PAGE (Wrightsman, R. A. et al., J. Immunol., 153:3148-3154 (1994).

Series [1] concerns mouse splenocytes, bone marrow cells, and peritoneal cells. Put plainly: IL-6 secretion by naive mouse cells. Particulars: peritoneal cells from BALB/c and other strains of mice. The format is cell-based.
A further series concerns PC12 cells. Put plainly: Neurite outgrowth assay in PC12 cells. It counts as cell-based, rat. The source says:
PC12 cells were obtained from ATCC (Manassas, Va. (Accession No. CRL-1721)) and cultured on collagen-coated dishes in RPMI 1640 supplemented with 10% horse serum and 5% fetal bovine serum (Greene, L. A. and Tishler, A. S., Proc. Natl. Acad. Sci. USA, 73: 2424-2428 (1976)). For differentiation and survival experiments, cells were washed three times in serum-free RPMI/0.2% BSA, plated in the same medium in collagen-coated plastic dishes at 2×10^5/ml, without and with growth factors, TS, recombinant proteins, synthetic peptides, for the time and concentrations indicated in the Figures.
96-well microtiter plates were coated overnight at 4° C. with the TS or peptides or fragments thereof, or with control proteins laminin (Ln) or bovine serum albumin (BSA) at 500 μg/ml. After removing the compounds, the plates were further incubated with 1% BSA for 1 hour at room temperature and immediately used as substratum for PC12 or N18 (Prasad, K. N., Biol Rev Camb Philos Soc, 66:431-451 (1991)) cells in serum-free RPMI/0.2% BSA. Neurite outgrowth was measured using a phase-contrast microscope 17 hours later.

The test system of series [2] is peripheral blood mononuclear cells (PBMC). As to the kind of experiment: IL-6 secretion by PBMC (ELISA). Also noted: IL-6 secretion by PBMC: dose or concentration left out as unconfirmed. It counts as cell-based, human. Here is the method:
(§1) Primary cultures of human intestinal microvascular endothelial cells (HIMEC) isolated from normal jejunal mucosa/submucosal tissue were prepared as described (Strong et al., Gastroenterology 114: 1244-1256 (1998)). The HIMEC were cultured in fibronectin-coated plasticware in MCDB medium (Sigma) supplemented with 20% FBS, 90 μg/ml heparin and 50 μg/ml endothelial cell growth factor (Sigma). T-24 cells (ATCC Accession No. HTB-4) were cultured in M199 medium supplemented with 10% FBS. PBMC were purified by Ficoll-Paque gradient as described (Current Protocols in Immunology, pp 7.1.1-7.1.2). Vero cells (ATCC Accession No. CCL-81) were grown in RPMI medium with 5% Nu serum and infected with the Silvio X-10/4 of T. cruzi as described previously (Chuenkova et al., J. Exp. Med. 181: 1693-1703, (1995)).
(§2) Endothelial cells and T-24 cells were plated on 24-well plates at a density of 1×10^3 cells/well, while peripheral blood mononuclear cells (PBMC) were plated in the similar wells at 1×10^6/well. Triplicat cultures of cells were incubated test agents for a predetermined amount of time. […] Cytokines and chemokines released in the culture supernatants were measured by ELISA assay following the instructions of the manufacturer (Endogen). The cytokines tested were IL-1β, IL-4, IL-8, IL-10, IL-12, IFN-γ, TNF-α, and the chemokines RANTES and MCP-1. Negative controls were cells incubated in medium containing polymixin B at 10 μg/ml, and positive controls were cells incubated with bacterial LPS at the low ng/ml range (for PBMC or HIMEC) or in the μg/ml range for carcinoma T-24 cells. In some experiments, IL-1β, or TNFα were used as positive control for cytokine release.
TR peptides (Table 2) were synthesized at the Tufts Synthesis Facility (Boston, Mass.). Each peptide was purified by HPLC, and the number of amino acids and molecular weight of each peptide verified by mass spectrometry. Peptides were dissolved in growth medium (10% FCS in RPMI) and added at various concentrations to 1×10^6 PBMC/well in 24-well plates. After 24 hrs, IL-6 was assayed by ELISA in the conditioned supernatants.
For orientation: ELISA stands for enzyme-linked immunosorbent assay.

Series [3] deals with primary rat cerebellar granule neurons. Put plainly: Survival of primary cerebellar granule neurons in low K+ medium. The format is cell-based. Particulars: serum-free BME 5 mM KCl, TS 100 ng/ml, 24 hours, FDA staining. The procedure:
Cultures enriched in granule neurons were obtained from the cerebellum of 8-days-old Wistar rats (Charles River, Wilmington, Mass.) as described by D'Mello et al., J. Neurosci 17:1548-1560 (1997). Cells were plated in basal Eagle medium (BME, Gibco BRL, Gaithersburg, Md.), supplemented with 10% FCS, 25 mM KCl and 2 mM glutamine (Gibso BRL) on dishes coated with poly-L-lysine and laminin. Cytosine arabinofumoside (10 μM) was added to the culture medium 18-22 hrs after plating to prevent replication of non-neuronal cells. Replacement of culture medium with serum-free BME medium was performed 7-10 days after plating. Cells were maintained in serum-free BME with 5 mM KCl for 3 hrs and challenged with different stimuli. Neuronal survival was assayed after 24 hours by staining with 10 μg/ml fluorescein diacetate (FDA, Sigma) (Jones and Senft, 1985) and with DAPI (see above). Chicken dorsal root ganglia neurons were prepared as described (Cox and Dunlap, J. Gen. Physiol 104:311-336 (1994)).

The test system of series [4] is human intestinal microvascular endothelial cells (HIMEC). Put plainly: IL-6 secretion by HIMEC (ELISA). The format is cell-based. Here is the method:
as §1, §2

The record followed here is patent publication US8114412B2, “T. cruzi-derived neurotrophic agents and methods of use therefor” (priority 1999, dated 2012).

Entries after “also recorded” stand apart in the source; their conditions may differ.

B1: TS-F: recombinant full catalytic domain of TS, amino acid residues 33-666, His-tagged, expressed in E. coli (protein, listed as Trypanosoma cruzi)
chain: ETQIAIKNSRVSSVSRVVDPTVIVKGNKLYVLVGSYYSSRSYWSSHGDARDWDILLAVGEVTKSTAGGKITASIKWGSPVSLKKFFPAEMEGMHTNQFLGGAGVAIVASNGNLVYPVQVTNKRKQVFSKIFYSEDDGKTWKFGKGRSDFGCSEPVALEWEGKLIINTRVDWKRRLVYESSDMEKPWVEAVGTVSRVWGPSPKSNQPGSQTSFTAVTIEGMRVMLFTHPLNFKGRCVRDRLNLWLTDNQRIYNVGQVSIGDENSAYSSVLYKDDKLYCLHEINTDEVYSLVFARLVGELRIIKSVLRSWKNWTATCPAFAPLLIQPLRRQRVVVVPLSPRLVLLAFCRQRLPKRMGGSYRCVNASTANAERVRNGLKFAGVGGGALWPVSQQGQNQRYRFANHAFTLVASVTIHEAPRAASPLLGASLDSSGGKKLLGLSYDEKHQWQPIYGSTPVTPTGSWETGKRYHLVLTMANKIGSVYIDGELLEGSGQTVVPDGRTPDISHFYVGGYKRSDMPTISHVTVNNVLLYNRRQLNTEEIRTLFLSQDLIGTEAHMDSSSDSSAHSTPSTPADSSAHSTPSTPVDSSAHSTPSTPADSSAHGTPSTPVDSSAHGTPSTPADSSAHGTPSTPVDS
modifications: His tag
notes: recombinant full catalytic domain of TS, amino acid residues 33-666, His-tagged, expressed in E. coli
On to B1, for which, in the series “Trans-sialidase assay”, the trans-sialidase enzymatic activity entry was “enzymatically active”.

B2: TS: T. cruzi trans-sialidase purified by immuno-affinity chromatography from supernatants of infected Vero cells (SEQ ID NO:2, SEQ ID NO:34) (protein, listed as Trypanosoma cruzi)
chain: MVAIADARYETSSENSLIDTVAKYSVDDGETWETQIAIKNSRVSSVSRVVDPTVIVKGNKLYVLVGSYYSSRSYWSSHGDARDWDILLAVGEVTKSTAGGKITASIKWGSPVSLKKFFPAEMEGMHTNQFLGGAGVAIVASNGNLVYPVQVTNKRKQVFSKIFYSEDDGKTWKFGKGRSDFGCSEPVALEWEGKLIINTRVDWKRRLVYESSDMEKPWVEAVGTVSRVWGPSPKSNQPGSQTSFTAVTIEGMRVMLFTHPLNFKGRCVRDRLNLWLTDNQRIYNVGQVSIGDENSAYSSVLYKDDKLYCLHEINTDEVYSLVFARLVGELRIIKSVLRSWKNWTATCPAFAPLLIQPLRRQRVVVVPLSPRLVLLAFCRQRLPKRMGGSYRCVNASTANAERVRNGLKFAGVGGGALWPVSQQGQNQRYRFANHAFTLVASVTIHEAPRAASPLLGASLDSSGGKKLLGLSYDEKHQWQPIYGSTPVTPTGSWETGKRYHLVLTMANKIGSVYIDGELLEGSGQTVVPDGRTPDISHFYVGGYKRSDMPTISHVTVNNVLLYNRRQLNTEEIRTLFLSQDLIGTEAHMDSSSDSSAHSTPSTPADSSAHSTPSTPVDSSAHSTPSTPADSSAHGTPSTPVDSSAHGTPSTPADSSAHGTPSTPVDSSAHSTPSTPVDSSAHSTPSTPVDSSAHGAPSTPADSSAHGTPSTPVDSSAHGTPSTPADSSAHSTPSTPADSSAHSTPSTPADSSAHSTPSTPVDSSAHGTPSTPADSSAHSTPSTPADSSAHGTPSTPVDSSAHSTPSTPVDSSAHGTPSTPVDSSAHSTPSTPVDSSAHGTPSTPVDSSAHSTPSTPADSSAHSTPSTPADSSAHGTPSTPVDSSAHSTPSTPADSSAHSTPSTPVDSSAHSTPSTPADSSAHGTPSTPVDSSAHGTPSTPADSSAHSTPSTPADSSAHSTPSTPADSSAHSTPSTPVDSSAHSTPSTPADSSAHSTPSTPADSSAHSTPSTPADSSAHSTPSTPVDSSAHSTPSTPADSSAHGTPSTPADSSAHSTPSTPVDSSAHSTPSTPADSSAHGTPSTPADSSAHSTPSTPADSSAHGTPSTPADSSAHSTPSTPAGSSANGTVLILPDGAALSTFSGGGLLLCACALLLHVFFMAVF
B2: the “IL-6 secretion by naive mouse cells” value in series [1] is “potently and specifically induced IL-6 secretion; also recorded: upregulator of IL-6 secretion”. The “concentration range at which TS was active in neurite extension” value in the series with PC12 cells stood at 0.125 nM. Also, in the series with PC12 cells (after a single dose of TS), the “time PC12 neurites remained extended” value was “about 24 hours” and the “time until PC12 neurites became visible” value came to 3 h. The “neurite outgrowth in PC12 cells” value in the series with PC12 cells (neurite outgrowth assay, concentration not given) is “induced neurite outgrowth”. Also, the “neurite outgrowth in PC12 cells” value in the series on PC12 cells (soluble in serum-free RPMI-1640/0.2% BSA, collagen coated dishes, 16 hours, NGF 0.1 μg/ml, VCNA 2.4 μg/ml, TS 1 μg/ml) is reported as “induces neurite outgrowth”. The “IL-6 secretion by PBMC” value in series [2] (24 hrs culture) was “potently and specifically induced IL-6 secretion; also recorded: stimulated IL-6 release”. In addition, the “stimulation time for maximum IL-6 secretion in PBMC” value in series [2] (TS 1 μg/ml) was found to be 24 h. Also, the “protection of primary cerebellar granule neurons from death in low K+ medium” value in series [3] is “effectively protected the neurons from death; also recorded: increased number of viable cells”. In series [4] (24 hrs culture), the “IL-6 secretion by HIMEC” value is “potently and specifically induced IL-6 secretion; also recorded: elevated in the conditioned supernatants in a manner dependent on the TS input”. Besides, in series [4] (TS 1 μg/ml), the “bacterial LPS concentration inducing the same quantity of IL-6 in HIMEC” value was 50 ng/mL and the “stimulation time for maximum IL-6 secretion in HIMEC” value was 24 h.
